Earlier results, collected in article PMC3000440.

Key:
[1] = target: IGF-IR (Homo sapiens) (UniProt P08069)
[2] = target: IGF-I (Homo sapiens) (UniProt P05019)
[3] = target: Met (Homo sapiens) (UniProt P08581)
[4] = target: EGFR (Homo sapiens) (UniProt P00533)

Chain of UniProt P08581 (P08581 25-932): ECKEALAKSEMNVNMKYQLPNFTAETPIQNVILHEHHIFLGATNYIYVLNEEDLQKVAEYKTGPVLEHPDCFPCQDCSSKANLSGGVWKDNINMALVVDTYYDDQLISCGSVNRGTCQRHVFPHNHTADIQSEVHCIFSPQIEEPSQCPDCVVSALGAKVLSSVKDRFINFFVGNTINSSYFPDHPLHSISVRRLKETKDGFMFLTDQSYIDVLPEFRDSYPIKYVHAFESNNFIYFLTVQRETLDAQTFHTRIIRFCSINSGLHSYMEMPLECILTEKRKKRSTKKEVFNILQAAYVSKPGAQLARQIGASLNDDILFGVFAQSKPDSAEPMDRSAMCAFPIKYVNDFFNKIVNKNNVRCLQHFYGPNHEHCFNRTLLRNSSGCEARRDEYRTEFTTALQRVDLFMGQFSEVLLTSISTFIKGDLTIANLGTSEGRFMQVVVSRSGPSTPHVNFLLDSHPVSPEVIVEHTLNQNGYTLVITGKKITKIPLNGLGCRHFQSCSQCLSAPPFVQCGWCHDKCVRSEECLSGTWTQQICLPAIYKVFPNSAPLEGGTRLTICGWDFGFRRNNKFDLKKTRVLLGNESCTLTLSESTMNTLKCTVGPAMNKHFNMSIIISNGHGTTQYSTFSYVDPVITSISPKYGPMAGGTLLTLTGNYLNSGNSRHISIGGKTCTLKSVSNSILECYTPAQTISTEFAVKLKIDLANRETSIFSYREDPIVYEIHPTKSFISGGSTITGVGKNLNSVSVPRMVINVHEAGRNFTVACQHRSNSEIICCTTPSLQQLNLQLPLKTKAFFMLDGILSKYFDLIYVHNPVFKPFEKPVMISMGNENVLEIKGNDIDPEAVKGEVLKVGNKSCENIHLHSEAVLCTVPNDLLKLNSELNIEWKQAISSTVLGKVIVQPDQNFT
Chain of UniProt P05019 (P05019 49-118): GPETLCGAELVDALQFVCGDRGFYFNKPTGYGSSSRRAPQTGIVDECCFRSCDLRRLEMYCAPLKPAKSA
Chain of UniProt P08069 (P08069 31-736, chain 1 of 2): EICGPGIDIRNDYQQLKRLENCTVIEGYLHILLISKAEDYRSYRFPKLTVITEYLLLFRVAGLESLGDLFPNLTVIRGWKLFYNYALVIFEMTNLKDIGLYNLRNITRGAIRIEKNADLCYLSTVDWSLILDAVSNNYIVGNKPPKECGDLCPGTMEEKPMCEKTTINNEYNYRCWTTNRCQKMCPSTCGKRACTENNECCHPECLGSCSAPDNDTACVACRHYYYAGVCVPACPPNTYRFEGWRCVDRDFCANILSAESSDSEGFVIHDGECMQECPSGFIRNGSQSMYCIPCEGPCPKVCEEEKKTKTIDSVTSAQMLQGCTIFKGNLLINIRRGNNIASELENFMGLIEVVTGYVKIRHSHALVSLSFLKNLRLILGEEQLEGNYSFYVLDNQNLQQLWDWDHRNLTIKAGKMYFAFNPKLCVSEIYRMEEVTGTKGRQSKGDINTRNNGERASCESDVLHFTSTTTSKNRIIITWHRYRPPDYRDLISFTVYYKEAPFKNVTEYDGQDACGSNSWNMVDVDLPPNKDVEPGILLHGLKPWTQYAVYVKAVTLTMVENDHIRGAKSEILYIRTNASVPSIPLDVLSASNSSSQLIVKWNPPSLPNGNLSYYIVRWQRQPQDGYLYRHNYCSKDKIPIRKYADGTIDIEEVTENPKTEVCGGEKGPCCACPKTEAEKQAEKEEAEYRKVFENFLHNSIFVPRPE
Chain of UniProt P08069 (P08069 741-935, chain 2 of 2): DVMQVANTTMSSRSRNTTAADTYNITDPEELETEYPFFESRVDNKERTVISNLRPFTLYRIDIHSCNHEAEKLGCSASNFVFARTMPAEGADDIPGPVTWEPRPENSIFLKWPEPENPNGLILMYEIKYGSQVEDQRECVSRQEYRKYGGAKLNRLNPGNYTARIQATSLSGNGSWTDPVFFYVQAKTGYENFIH

Kd [1]: 1.5 nM | Kd [2]: 18 nM | Kd [3]: 1.5 nM | Kd [4]: 87 nM
Substance: decorin (from UniProt P07585)
